16 molecules from patent US20200317768A1 (published 2020) can be followed below.

Numbering of substitutions follows the chain as printed.

Assay [1] concerns the target T1, human FcγRIIaR extracellular domain, His-tagged (human, UniProt P12318 34-217).
T1 construct: also called human FcγRIIa (type R); FcgRIIaR; not shown: C-terminal His-tag
T1 chain: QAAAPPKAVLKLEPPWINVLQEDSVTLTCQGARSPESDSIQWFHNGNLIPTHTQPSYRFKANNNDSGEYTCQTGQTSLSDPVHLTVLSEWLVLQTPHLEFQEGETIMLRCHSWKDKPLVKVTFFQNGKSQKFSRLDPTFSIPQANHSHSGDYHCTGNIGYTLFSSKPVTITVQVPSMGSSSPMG
Briefly: SPR (BIACORE); KD of SG1 divided by KD of variant.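 Also: relative to parent M103205H795-SG1 carrying the SG1 human heavy chain constant region.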 For orientation: Surface plasmon resonance follows binding to a sensor surface in real time, without labels.

Assay [2] has as its target T2, cynomolgus monkey FcγRIIb extracellular domain, His-tagged (cynomolgus monkey).
T2 construct: also called cyno FcγRIIb; cynoFcγRIIb; not shown: C-terminal His-tag
T2 chain: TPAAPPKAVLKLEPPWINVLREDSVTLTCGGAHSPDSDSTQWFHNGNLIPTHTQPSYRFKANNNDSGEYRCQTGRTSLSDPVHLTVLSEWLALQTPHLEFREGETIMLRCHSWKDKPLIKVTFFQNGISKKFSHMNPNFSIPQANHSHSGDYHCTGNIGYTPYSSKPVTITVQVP
The assay is described as follows: SPR (BIACORE); KD of SG1 divided by KD of variant.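 Also: relative to parent M103205H795-SG1 carrying the SG1 human heavy chain constant region.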

B1: M103205H795-MY461/M103202L889-SK1 (antibody, human IgG1, kappa)
heavy: QVTLKESGPVLVKPTETLTLTCTVSGIDLSHDDISWVRQAPGKGLEWVGIISYAGSTYYASWAKGRLTISKDTSKNQVVLTMTNMDPVDTATYYCARGVPAYSHGGDLWGQGTLVTVSSASTKGPSVFPLAPSSKSTSGGTAALGCLVKDYFPEPVTVSWNSGALTSGVHTFPAVLQSSGLYSLSSVVTVPSSSLGTQTYICNVNHKPSNTKVDKKVEPKSCDKTHTCPPCPFPELLTGPSVFLFPPKPKDTLMISRTPEVTCVVVDVSDEDPEVKFNWYVDGVEVHNAKTKPREEQYNSTYRVVSVLTVLHQDWLNGKEYKCKVSNKALPKPIEKTISKAKGQPREPQVYTLPPSREEMTKNQVSLTCLVKGFYPSDIAVEWESNGQPENNYKTTPPVLDSDGSFFLYSKLTVDKSRWQQGNVFSCSVMHEALHNHYTQKSLSLSP
light: DIVMTQSPATLSLSPGERATLSCTSSQSVYHANWLSWFQQKPGQPPKLLIYWASTLAYGVPSRFSGSGSGTDFTLTISSLQPEDAATYYCAGGYGGGRYAFGQGTKVEIKRTVAAPSVFIFPPSDEQLKSGTASVVCLLNNFYPREAKVQWKVDNALQSGNSQESVTEQDSKDSTYSLSSTLTLSKADYEKHKVYACEVTHQGLSSPVTKSFNRGEC
notes: copies: 2 + 2
As for B1, the “KD fold (SG1 = 1)” value was determined as 3.2 fold in assay [1] and 3.8 fold in assay [2].

B2: M103205H795-MY471/M103202L889-SK1 (antibody, human IgG1, kappa)
heavy: B1 heavy with F233R
light: B1 light
notes: copies: 2 + 2
With B2, the “KD fold (SG1 = 1)” value in assay [1] is 2.5 fold; in assay [2], 2.6 fold.

B3: M103205H795-MY462/M103202L889-SK1 (antibody, human IgG1, kappa)
heavy: B1 heavy with F233G
light: B1 light
notes: copies: 2 + 2
With B3, the results for the “KD fold (SG1 = 1)” value in assay [1] and in assay [2] were 2.2 fold and 3.8 fold, respectively.

B4: M103205H795-MY467/M103202L889-SK1 (antibody, human IgG1, kappa)
heavy: B1 heavy with F233M
light: B1 light
notes: copies: 2 + 2
For the molecule B4, the figures for the “KD fold (SG1 = 1)” value in assay [1] and in assay [2] were 3.1 fold and 2.5 fold, respectively.

B5: M103205H795-MY466/M103202L889-SK1 (antibody, human IgG1, kappa)
heavy: B1 heavy with F233L
light: B1 light
notes: copies: 2 + 2
Turning to B5, the “KD fold (SG1 = 1)” value in assay [1] stood at 4.2 fold; in assay [2], 3.5 fold.

B6: M103205H795-MY470/M103202L889-SK1 (antibody, human IgG1, kappa)
heavy: B1 heavy with F233Q
light: B1 light
notes: copies: 2 + 2
B6: the “KD fold (SG1 = 1)” value in assay [1] was found to be 2.5 fold; in assay [2] it was 3.3 fold.

B7: M103205H795-MY473/M103202L889-SK1 (antibody, human IgG1, kappa)
heavy: B1 heavy with F233T
light: B1 light
notes: copies: 2 + 2
Consider B7, for which the “KD fold (SG1 = 1)” value turned out to be 2.2 fold in assay [1] and 3.1 fold in assay [2].

B8: M103205H795-MY465/M103202L889-SK1 (antibody, human IgG1, kappa)
heavy: B1 heavy with F233K
light: B1 light
notes: copies: 2 + 2
With B8, the “KD fold (SG1 = 1)” value in assay [1] is 1.8 fold; in assay [2], 2.6 fold.

B9: M103205H795-MY463/M103202L889-SK1 (antibody, human IgG1, kappa)
heavy: B1 heavy with F233H
light: B1 light
notes: copies: 2 + 2
Consider B9, for which the “KD fold (SG1 = 1)” value in assay [1] turned out to be 2.2 fold; in assay [2] it was 3.1 fold.

B10: M103205H795-MY475/M103202L889-SK1 (antibody, human IgG1, kappa)
heavy: B1 heavy with F233W
light: B1 light
notes: copies: 2 + 2
For the molecule B10, the “KD fold (SG1 = 1)” value in assay [1] was found to be 3.2 fold; in assay [2], 8.7 fold.

B11: M103205H795-MY474/M103202L889-SK1 (antibody, human IgG1, kappa)
heavy: B1 heavy with F233V
light: B1 light
notes: copies: 2 + 2
B11: the entries for the “KD fold (SG1 = 1)” value in assay [1] and in assay [2] were 3.2 fold and 3.6 fold, respectively.

B12: M103205H795-MY469/M103202L889-SK1 (antibody, human IgG1, kappa)
heavy: B1 heavy with F233P
light: B1 light
notes: copies: 2 + 2
Take B12: the “KD fold (SG1 = 1)” value in assay [1] is 2.6 fold; in assay [2], 3 fold.

B13: M103205H795-MY476/M103202L889-SK1 (antibody, human IgG1, kappa)
heavy: B1 heavy with F233Y
light: B1 light
notes: copies: 2 + 2
For B13, the figures for the “KD fold (SG1 = 1)” value in assay [1] and in assay [2] were 4.4 fold and 4.6 fold, respectively.

B14: M103205H795-MY472/M103202L889-SK1 (antibody, human IgG1, kappa)
heavy: B1 heavy with F233S
light: B1 light
notes: copies: 2 + 2
Regarding B14, the “KD fold (SG1 = 1)” value in assay [1] was 2.2 fold; in assay [2] it was 2.7 fold.

B15: M103205H795-MY468/M103202L889-SK1 (antibody, human IgG1, kappa)
heavy: B1 heavy with F233N
light: B1 light
notes: copies: 2 + 2
For the molecule B15, the “KD fold (SG1 = 1)” value in assay [1] stood at 2.3 fold; in assay [2] it was 2.8 fold.

B16: M103205H795-MY464/M103202L889-SK1 (antibody, human IgG1, kappa)
heavy: B1 heavy with F233I
light: B1 light
notes: copies: 2 + 2
Regarding B16, the “KD fold (SG1 = 1)” value was 4.2 fold in assay [1] and 3.6 fold in assay [2].
